The target of assay [1] is Active phosphorylated His6-tagged ERK2 D319N (rat (p-0033 says mouse)) (UniProt P63086).
Assay [2] concerns the target Active phosphorylated His6-tagged ERK2 E320K (rat (p-0033 says mouse)) (UniProt P63086).
Assay [3] deals with Active phosphorylated His6-tagged ERK2 R133K (rat (p-0033 says mouse)) (UniProt P63086).
Assay [4] concerns the target Active phosphorylated His6-tagged ERK2 WT (rat (p-0033 says mouse)) (UniProt P63086).
In assay [5] the target is Active phosphorylated His6-tagged ERK2 D319N (rat (p-0033 says mouse)) (UniProt P63086). This is another data set of the same source.
Assay [6] has as its target Active phosphorylated His6-tagged ERK2 E320K (rat (p-0033 says mouse)) (UniProt P63086). This is another data set of the same source.
In assay [7] the target is Active phosphorylated His6-tagged ERK2 R133K (rat (p-0033 says mouse)) (UniProt P63086). The source holds these as a separate data set.
Assay [8] addresses Active phosphorylated His6-tagged ERK2 WT (rat (p-0033 says mouse)) (UniProt P63086). The source holds these as a separate data set.
The target in assay [9] is Active phosphorylated His6-tagged ERK2 D319N (rat (p-0033 says mouse)) (UniProt P63086). This is another data set of the same source.
The target in assay [10] is Active phosphorylated His6-tagged ERK2 E320K (rat (p-0033 says mouse)) (UniProt P63086). This is another data set of the same source.
Assay [11] deals with Active phosphorylated His6-tagged ERK2 R133K (rat (p-0033 says mouse)) (UniProt P63086). This is another data set of the same source.
Assay [12] concerns the target Active phosphorylated His6-tagged ERK2 WT (rat (p-0033 says mouse)) (UniProt P63086). This is another data set of the same source.
In assay [13] the target is Active phosphorylated His6-tagged ERK2 D319N (rat (p-0033 says mouse)) (UniProt P63086). The source holds these as a separate data set.
Assay [14] has as its target Active phosphorylated His6-tagged ERK2 E320K (rat (p-0033 says mouse)) (UniProt P63086). The source holds these as a separate data set.
Assay [15] has as its target Active phosphorylated His6-tagged ERK2 R133K (rat (p-0033 says mouse)) (UniProt P63086). The source holds these as a separate data set.
Assay [16] addresses Active phosphorylated His6-tagged ERK2 WT (rat (p-0033 says mouse)) (UniProt P63086). This is another data set of the same source.
Assay [17] addresses Active phosphorylated His6-tagged ERK2 R133K (rat (p-0033 says mouse)) (UniProt P63086). This is another data set of the same source.
Assay [18] deals with Active phosphorylated His6-tagged ERK2 WT (rat (p-0033 says mouse)) (UniProt P63086). The source holds these as a separate data set.
Assay [19] deals with Active phosphorylated His6-tagged ERK2 D319N (rat (p-0033 says mouse)) (UniProt P63086). This is another data set of the same source.
Assay [20] addresses Active phosphorylated His6-tagged ERK2 E320K (rat (p-0033 says mouse)) (UniProt P63086). This is another data set of the same source.
The target in assay [21] is Active phosphorylated His6-tagged ERK2 R133K (rat (p-0033 says mouse)) (UniProt P63086). The source holds these as a separate data set.
Assay [22] concerns the target Active phosphorylated His6-tagged ERK2 WT (rat (p-0033 says mouse)) (UniProt P63086). The source holds these as a separate data set.
Assay [23] deals with Active phosphorylated His6-tagged ERK2 D319N (rat (p-0033 says mouse)) (UniProt P63086). This is another data set of the same source.
The target in assay [24] is Active phosphorylated His6-tagged ERK2 E320K (rat (p-0033 says mouse)) (UniProt P63086). The source holds these as a separate data set.
For assay [25], the target named is Active phosphorylated His6-tagged ERK2 R133K (rat (p-0033 says mouse)) (UniProt P63086). This is another data set of the same source.
Assay [26] has as its target Active phosphorylated His6-tagged ERK2 WT (rat (p-0033 says mouse)) (UniProt P63086). This is another data set of the same source.

The IC50 is the point on the concentration scale where inhibition reaches its midpoint.

Like-named read-outs stand apart in the source and are kept apart here.

As for MLXIPL, the IC50 in assay [1] was determined as 26 µM; in assay [2], 28 µM; in assay [3] it was 23 µM; in assay [4], 18 µM.
For ELMSAN1, the IC50 in assay [5] was determined as 30 µM; in assay [6] it was 40 µM; in assay [7], 27 µM; in assay [8], 24 µM.
As to AEBP1, the concentration for half-maximal inhibition (IC50) worked out at 120 µM in assay [9], 160 µM in [10], 110 µM in assay [11] and 16 µM in [12].
For the substance CBX7, the IC50 was 9.8 µM in assay [13], 14 µM in assay [14], 5.7 µM in assay [15] and 5.1 µM in assay [16].
Take ANAPC5: the figures for the IC50 in assay [17] and in assay [18] were 340 µM and 32 µM, respectively.
Regarding ZBED6, the 50% inhibitory concentration (IC50) in assay [19] is 23 µM; in assay [20], 56 µM; in assay [21], 6.2 µM; in assay [22] it was 6.8 µM.
Take DISC1: the half-maximal inhibitory concentration (IC50) worked out at 79 µM in assay [23], 110 µM in assay [24], 74 µM in assay [25] and 23 µM in assay [26].

(Values after paper PMC11982978, “Cancer hotspot mutations rewire ERK2 specificity by selective exclusion of docking interactions” (The Journal of Biological Chemistry, 2025).)
